The values below come from PMC5424802 (Intrinsically Disordered Proteins, 2013).

This assay has as its target T1, Stabilin CTD (C-terminal domain of stabilin-2, truncated intracellular region) (human, UniProt Q8WWQ8 2501-2551).
T1 sequence: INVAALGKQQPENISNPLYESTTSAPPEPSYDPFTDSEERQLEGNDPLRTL
Put plainly: ITC. In general terms: ITC needs no label: the signal is the heat of the interaction.

MSDKPDMAEIEKFDKSKLKKTETQEKNPLPSKETIEQEKQAGES (natural protein, not fully specified) [Thymosin β4] displayed a dH of -1.75 kcal/mol.
